Data: patent publication US20240272170A1 (QUANTUM SI, published 2024)
Changes are numbered by the printed parent chain. Each block holds one binder with its values, some of them ahead of it. No end group written: not given here. *: point of attachment. FITC = O=C1OC2(c3ccc(O)cc3Oc3cc(O)ccc32)c2ccc(NC(=S)*)cc21

Legend:
[1] = target: T1, second R of YRELRLLK (RLLK); assay: on-chip single-molecule dynamic sequencing, example traces, time axis 0-600 min
T1 construct: also called parent peptide after cleavage to the second arginine
T1 peptide: RLLK

[2] = target: T2, HA peptide (XAKLDEESILKQK-FITC, X = H); assay: fluorescence polarization titration, 20 C
T2 construct: also called peptide with N-terminal histidine
T2 peptide: HAKLDEESILKQK(FITC)
Description: (§1) Binding affinity was measured by polarization using a labeled peptide. The polarization response and total intensity measurements were carried out at 20° C. on a microplate fluorometer with 480 nm excitation and 530 nm emission. […] Multiple analyses were performed at increasing recognizer concentration at a fixed concentration of a target peptide to obtain a titration curve. An equilibrium polarization response at each concentration was plotted and fit to calculate the KD.
(§2) Fluorescence polarization assays were performed with all candidates, and single point binding responses were measured at a fixed concentration of the binders (FIG. 13A). […] We carried out multiple polarization binding titration analysis at increasing concentration of binder protein, and the Kds were determined from the titration curves (FIG. 13B).

[3] = target: T3, RA peptide (XAKLDEESILKQK-FITC, X = R); assay: fluorescence polarization titration, 20 C
T3 construct: also called peptide with N-terminal arginine
T3 peptide: RAKLDEESILKQK(FITC)
Description: as §1, §2

[4] = target: T3, RA peptide (XAKLDEESILKQK-FITC, X = R); assay: fluorescence polarization titration, PS621 0-5000 nM
Description: as §1, §2

[5] = target: T4, QP1165 after cleavage to N-terminal alanine (AFLKQRVWK); assay: on-chip dynamic sequencing of QP1165, PS1875 run, trace Aperture=1353995
T4 peptide: AFLKQRVWK

[6] = target: T4, QP1165 after cleavage to N-terminal …; assay: on-chip dynamic sequencing of QP1165, 500 nM PS2121 plus five recognizers, 15527 alignments
[7] = target: T4, QP1165 after cleavage to N-terminal …; assay: on-chip dynamic sequencing of QP1165, PS2121 run, trace Aperture=740473
[8] = target: T4, QP1165 after cleavage to N-terminal …; assay: on-chip dynamic sequencing of QP1165, PS1875 run, trace Aperture=1377116
Description: (§3) The semiconductor chip was placed in the sequencing device and a chip check was performed to test electronic circuit function and to optimize laser coupling alignment. The chip was then removed from the device socket and the chip was washed twice with 50 μL of 70% isopropanol, followed by four washes with 30 μL of wash buffer (50 mM MOPS pH 8.0, 60 mM potassium acetate, 50 mM glucose, 20 mM magnesium acetate, and surfactant mix) through a flow cell attached to the chip. A second chip check was then performed. The laser was then blocked via an integrated software-controlled shutter, peptide complex was added to a final concentration of 1-10 nM and mixed thoroughly, and the chip was incubated for 15 min. The chip was then washed six times with wash buffer, followed by addition of an imaging solution (wash buffer with 5 mM Trolox and an oxygen scavenging system). The laser was unblocked and the occupancy percentage (target 10-30%, Poisson distributed) was recorded by acquiring a photobleaching signal from a fluorophore attached to the peptide complex during 5 min of laser illumination. […] Data was recorded for 15 min. The laser was then blocked briefly and aminopeptidases were added to the sequencing reaction via the flow cell and mixed thoroughly (final concentration 2-8 μM PhTET2 and/or 20-80 μM PhTET3, as indicated according to the experiment). The laser was then unblocked, and data was recorded for 10 hours. For all runs, 30 μL of mineral oil was added to fluid reservoirs at each port of the flow cell to prevent evaporation during the run.

[9] = target: T4, QP1165 after cleavage to N-terminal …; assay: on-chip dynamic sequencing of QP1165, PS2132 run, trace Aperture=376215
[10] = target: T4, QP1165 after cleavage to N-terminal …; assay: on-chip dynamic sequencing of QP1165, PS2123 run, trace Aperture=501326
[11] = target: T4, QP1165 after cleavage to N-terminal …; assay: on-chip dynamic sequencing of QP1165, PS2121 run, trace Aperture=1683362
[12] = target: T4, QP1165 after cleavage to N-terminal …; assay: on-chip dynamic sequencing of QP1165, PS2132 run, trace Aperture=1826247
[13] = target: T4, QP1165 after cleavage to N-terminal …; assay: on-chip dynamic sequencing of QP1165, 500 nM PS1875 plus five recognizers, 7305 alignments
[14] = target: T4, QP1165 after cleavage to N-terminal …; assay: on-chip dynamic sequencing of QP1165, 500 nM PS2132 plus five recognizers, 36192 alignments
[15] = target: T4, QP1165 after cleavage to N-terminal …; assay: on-chip dynamic sequencing of QP1165, PS1875 run, trace Aperture=430641
[16] = target: T4, QP1165 after cleavage to N-terminal …; assay: on-chip dynamic sequencing of QP1165, 500 nM PS1875 plus five recognizers, 11565 alignments
Description: as §3

[17] = target: T4, QP1165 after cleavage to N-terminal …; assay: on-chip dynamic sequencing of QP1165, PS2123 run, trace Aperture=1168773
[18] = target: T4, QP1165 after cleavage to N-terminal …; assay: on-chip dynamic sequencing of QP1165, 500 nM PS1875 plus five recognizers, 3369 alignments
[19] = target: T4, QP1165 after cleavage to N-terminal …; assay: on-chip dynamic sequencing of QP1165, 500 nM PS2123 plus five recognizers, 62511 alignments
[20] = target: T4, QP1165 after cleavage to N-terminal …; assay: on-chip dynamic sequencing of QP1165, PS1875 run, trace Aperture=1311609
[21] = target: VA Peptide (fluorescence polarization) (FITC on the C-terminal lysine); assay: fluorescence polarization, FITC peptide titrated with protein
[22] = target: T5, MA Peptide (fluorescence polarization); assay: as above
T5 peptide: MAKLDEESILKQK(FITC)

[23] = target: T6, LA Peptide (fluorescence polarization); assay: as above
T6 peptide: LAKLDEESILKQK(FITC)

[24] = target: T7, AA Peptide (fluorescence polarization), AAKLDEESILKQ{LYS(FITC)}; assay: as above
T7 peptide: AAKLDEESILKQK(FITC)

[25] = target: T8, MA peptide (Octet assay of PS557 variants); assay: Octet (BLI), peptide on sensor, response after 200 s association
T8 construct: Peptide coated on the Octet sensor
Description: (§4) In the high-throughput assay, Octet sensors are coated with the peptide of interest and dipped in buffer containing the purified protein. An approximation of relative binding can be obtained by comparing the response after 200 seconds for each protein. Each protein has approximately the same molecular mass and is used at the same concentration, so ranking the proteins by response level in this assay gives an approximation of which proteins have improved binding. Studying the on and off-rate can also give insight into the mechanism of binding.

[26] = target: T9, YA peptide (Octet assay of PS557 variants); assay: as above
T9 construct: Peptide coated on the Octet sensor
Description: as §4

[27] = target: T10, FA peptide (Octet assay of PS557 variants); assay: as above
T10 construct: Peptide coated on the Octet sensor
Description: as §4

[28] = target: T11, WA peptide (Octet assay of PS557 variants); assay: as above
T11 construct: Peptide coated on the Octet sensor
Description: as §4

[29] = target: T12, IA peptide (Octet assay of PS557 variants); assay: as above
T12 construct: Peptide coated on the Octet sensor
Description: as §4

- binding result [1]: binds
- Kd [2]: 6770 nM
- Kd [3]: 475 nM
- Kd [4]: 475 nM
B1: PS621 (other)
chain: MHSKFSHAGRICGAKFKVGEPIYRCKECSFDDTCVLCVNCFNPKDHTGHHVYTTICTEFNNGICDCGDKEAWNHTLFCKAEEG
notes: tag of the assay construct not specified; also called UBR protein from Kluyveromyces marxianus

- PD of a recognition segment in an example trace [5]: 0.87 s
- IPD (interpulse duration) [6]: 16 s
- PD (pulse duration) [6]: 0.72 s
- PD of a recognition segment in an example trace [7]: 0.75 s
- PD of a recognition segment in an example trace [8]: 0.75 s
- PD of a recognition segment in an example trace [9]: 0.32 s
- PD of a recognition segment in an example trace [10]: 0.39 s
- PD of a recognition segment in an example trace [11]: 2.53 s
- PD of a recognition segment in an example trace [12]: 0.64 s
- IPD (interpulse duration) [13]: 15 s
- PD (pulse duration) [13]: 0.66 s
- IPD (interpulse duration) [14]: 16.1 s
- PD (pulse duration) [14]: 0.62 s
- PD of a recognition segment in an example trace [15]: 0.64 s
- IPD (interpulse duration) [16]: 17.2 s
- PD (pulse duration) [16]: 0.72 s
- PD of a recognition segment in an example trace [17]: 0.43 s
- IPD (interpulse duration) [18]: 14.7 s
- PD (pulse duration) [18]: 0.76 s
- IPD (interpulse duration) [19]: 17.4 s
- PD (pulse duration) [19]: 0.7 s
- PD of a recognition segment in an example trace [20]: 1.26 s
B2: PS1587 (designed binder)
single polypeptide, two PS1165 units in tandem: MGLENSLETLRFSISNLSMQTHAARMRTFMYWPSSVPVQPEQLASAGFYYVGRNDDVKCFCCDGGLRCWESGDDPWVEHAKWFPRCEFLIRMKGQEFVDEIQGRYPHLLEQLLSEAAAKEAAAKEAAAKMGLENSLETLRFSISNLSMQTHAARMRTFMYWPSSVPVQPEQLASAGFYYVGRNDDVKCFCCDGGLRCWESGDDPWVEHAKWFPRCEFLIRMKGQEFVDEIQGRYPHLLEQLLSG
notes: also called PS1587 (AST)

- Kd [21]: 142 nM
- Kd [22]: 1140 nM
- Kd [23]: 19 nM
- Kd [24]: 5140 nM
- Octet response [25]: 5.48 nm
- Octet response [26]: 0.177 nm
- Octet response [27]: 0.102 nm
- Octet response [28]: 0.0292 nm
- Octet response [29]: 9.38 nm
B3: PS852 (designed binder)
chain: MPTAASATESAIEDTPAPARPEVDGRTKPKHQPRYHVVLWDDDDHTYQYVVVMLRSLFGHPPERGYRLAKEMDTQGRVIVLTTTREHAELKRDQIHAFGYDRLLARSKGSMKASIEAEE
notes: Variant of PS557

- Kd [21]: 205 nM
- Kd [22]: 648 nM
- Kd [23]: 10 nM
- Kd [24]: 6770 nM
- Octet response [25]: 9.5 nm
- Octet response [26]: 1.31 nm
- Octet response [27]: 0.673 nm
- Octet response [28]: 0.165 nm
- Octet response [29]: 13.5 nm
B4: PS824 (designed binder)
chain: B3 chain with I12F, H31R
notes: Variant of PS557
